Data taken from PMC4653696.

Columns and labels:
Test in all cases: FRET or BRET; 25 nM donor (AF555)-labelled octamers titrated with acceptor (AF647)-labelled octamers, serial dilutions from 100 nM; 45 mM KCl, 50 mM Tris-HCl pH 8.0; room temperature, 1 h equilibration; triplicate; PCA and curve fit; apparent Kd of end-to-end association of rods
[1] = biological target: Cdc11(E294C)-capped, otherwise Cys-less septin hetero-octamer (Cdc11-Cdc12-Cdc3-Cdc10-Cdc10-Cdc3-Cdc12-Cdc11) (S. cerevisiae) (UniProt P32458)
Chain of Cdc11(E294C)-capped, otherwise Cys-less septin hetero-octamer (Cdc11-Cdc12-Cdc3-Cdc10-Cdc10-Cdc3-Cdc12-Cdc11) (S. cerevisiae) (P32458 whole entry C43F/C137A/C138A/E294C, chain 1 of 4): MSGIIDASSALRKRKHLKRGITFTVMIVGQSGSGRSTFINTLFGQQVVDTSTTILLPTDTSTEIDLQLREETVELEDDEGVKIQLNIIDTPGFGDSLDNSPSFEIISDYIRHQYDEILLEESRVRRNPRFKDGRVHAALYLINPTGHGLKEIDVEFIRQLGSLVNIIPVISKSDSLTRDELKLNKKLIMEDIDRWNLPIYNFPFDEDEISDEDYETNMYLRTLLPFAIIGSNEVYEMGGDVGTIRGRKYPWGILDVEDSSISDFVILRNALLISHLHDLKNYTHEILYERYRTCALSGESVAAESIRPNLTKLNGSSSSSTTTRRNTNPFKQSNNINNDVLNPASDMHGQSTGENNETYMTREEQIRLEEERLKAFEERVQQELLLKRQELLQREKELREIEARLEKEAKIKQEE
Chain of Cdc11(E294C)-capped, otherwise Cys-less septin hetero-octamer (Cdc11-Cdc12-Cdc3-Cdc10-Cdc10-Cdc3-Cdc12-Cdc11) (S. cerevisiae) (P32468 whole entry C40A/C278S, chain 2 of 4, further chain): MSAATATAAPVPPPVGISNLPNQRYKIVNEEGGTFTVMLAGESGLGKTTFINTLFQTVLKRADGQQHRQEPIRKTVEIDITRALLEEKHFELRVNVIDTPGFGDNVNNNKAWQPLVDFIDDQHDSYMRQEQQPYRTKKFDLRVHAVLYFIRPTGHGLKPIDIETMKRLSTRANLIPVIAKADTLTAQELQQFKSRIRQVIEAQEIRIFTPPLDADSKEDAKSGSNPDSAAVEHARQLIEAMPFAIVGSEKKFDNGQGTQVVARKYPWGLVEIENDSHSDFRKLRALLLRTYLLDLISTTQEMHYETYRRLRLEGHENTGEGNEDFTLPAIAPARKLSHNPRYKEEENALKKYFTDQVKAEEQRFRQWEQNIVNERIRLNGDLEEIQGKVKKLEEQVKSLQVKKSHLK
Chain of Cdc11(E294C)-capped, otherwise Cys-less septin hetero-octamer (Cdc11-Cdc12-Cdc3-Cdc10-Cdc10-Cdc3-Cdc12-Cdc11) (S. cerevisiae) (P32457 other isoform, or with tags, fused parts or gaps E294C, chain 3 of 4, further chain): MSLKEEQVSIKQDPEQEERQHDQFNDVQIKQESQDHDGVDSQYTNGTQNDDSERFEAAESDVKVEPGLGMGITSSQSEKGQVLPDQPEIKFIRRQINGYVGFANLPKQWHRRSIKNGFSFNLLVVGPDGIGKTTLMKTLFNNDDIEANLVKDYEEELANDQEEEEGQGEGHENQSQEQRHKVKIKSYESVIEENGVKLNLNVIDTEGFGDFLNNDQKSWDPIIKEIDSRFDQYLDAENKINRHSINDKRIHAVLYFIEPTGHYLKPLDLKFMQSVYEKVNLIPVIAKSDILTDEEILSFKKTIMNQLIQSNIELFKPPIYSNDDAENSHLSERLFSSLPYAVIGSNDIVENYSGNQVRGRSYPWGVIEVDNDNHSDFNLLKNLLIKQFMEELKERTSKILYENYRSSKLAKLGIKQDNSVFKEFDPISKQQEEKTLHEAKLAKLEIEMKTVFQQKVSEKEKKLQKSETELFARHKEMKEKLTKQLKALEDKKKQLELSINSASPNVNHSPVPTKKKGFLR
Chain of Cdc11(E294C)-capped, otherwise Cys-less septin hetero-octamer (Cdc11-Cdc12-Cdc3-Cdc10-Cdc10-Cdc3-Cdc12-Cdc11) (S. cerevisiae) (P25342 whole entry C266S, chain 4 of 4, further chain): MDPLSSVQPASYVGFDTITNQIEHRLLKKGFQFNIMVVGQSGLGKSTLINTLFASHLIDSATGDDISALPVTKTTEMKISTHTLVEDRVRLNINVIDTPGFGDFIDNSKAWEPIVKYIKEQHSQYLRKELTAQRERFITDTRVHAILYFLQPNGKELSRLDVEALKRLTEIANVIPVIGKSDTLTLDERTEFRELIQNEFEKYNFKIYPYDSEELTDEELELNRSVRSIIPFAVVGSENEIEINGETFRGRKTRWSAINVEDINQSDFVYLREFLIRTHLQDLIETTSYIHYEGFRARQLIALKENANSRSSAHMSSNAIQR

[2] = biological target: Shs1(E344C)-capped, otherwise Cys-less septin hetero-octamer (Shs1-Cdc12-Cdc3-Cdc10-Cdc10-Cdc3-Cdc12-Shs1) (S. cerevisiae) (UniProt Q07657)
Chain of Shs1(E344C)-capped, otherwise Cys-less septin hetero-octamer (Shs1-Cdc12-Cdc3-Cdc10-Cdc10-Cdc3-Cdc12-Shs1) (S. cerevisiae) (Q07657 whole entry C29V/C148S/E344C, chain 1 of 4): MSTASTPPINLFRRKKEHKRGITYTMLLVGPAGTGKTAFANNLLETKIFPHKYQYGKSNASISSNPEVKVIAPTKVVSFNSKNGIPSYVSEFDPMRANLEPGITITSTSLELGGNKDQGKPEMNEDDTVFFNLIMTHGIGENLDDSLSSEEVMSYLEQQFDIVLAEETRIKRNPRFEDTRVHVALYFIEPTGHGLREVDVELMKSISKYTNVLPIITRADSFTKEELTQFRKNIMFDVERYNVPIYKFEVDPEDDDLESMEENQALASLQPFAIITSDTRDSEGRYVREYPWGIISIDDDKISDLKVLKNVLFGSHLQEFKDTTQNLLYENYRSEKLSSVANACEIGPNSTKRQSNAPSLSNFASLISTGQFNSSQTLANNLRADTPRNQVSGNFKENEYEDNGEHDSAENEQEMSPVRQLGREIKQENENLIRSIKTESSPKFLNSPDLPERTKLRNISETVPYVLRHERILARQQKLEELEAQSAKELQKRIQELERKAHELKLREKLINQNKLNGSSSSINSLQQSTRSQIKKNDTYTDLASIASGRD
Chain of Shs1(E344C)-capped, otherwise Cys-less septin hetero-octamer (Shs1-Cdc12-Cdc3-Cdc10-Cdc10-Cdc3-Cdc12-Shs1) (S. cerevisiae) (P32468 whole entry C40A/C278S, chain 2 of 4, further chain): as the sequence (P32468 whole entry C40A/C278S, chain 2 of 4, further chain) above
Chain of Shs1(E344C)-capped, otherwise Cys-less septin hetero-octamer (Shs1-Cdc12-Cdc3-Cdc10-Cdc10-Cdc3-Cdc12-Shs1) (S. cerevisiae) (P32457 other isoform, or with tags, fused parts or gaps E344C, chain 3 of 4, further chain): as the sequence (P32457 other isoform, or with tags, fused parts or gaps E294C, chain 3 of 4, further chain) above
Chain of Shs1(E344C)-capped, otherwise Cys-less septin hetero-octamer (Shs1-Cdc12-Cdc3-Cdc10-Cdc10-Cdc3-Cdc12-Shs1) (S. cerevisiae) (P25342 whole entry C266S, chain 4 of 4, further chain): as the sequence (P25342 whole entry C266S, chain 4 of 4, further chain) above

[3] = biological target: Shs1(E344C ΔCTE)-capped, otherwise Cys-less septin hetero-octamer (S. cerevisiae) (UniProt Q07657)
Chain of Shs1(E344C ΔCTE)-capped, otherwise Cys-less septin hetero-octamer (S. cerevisiae) (Q07657 1-348 C29V/C148S/E344C, chain 1 of 4): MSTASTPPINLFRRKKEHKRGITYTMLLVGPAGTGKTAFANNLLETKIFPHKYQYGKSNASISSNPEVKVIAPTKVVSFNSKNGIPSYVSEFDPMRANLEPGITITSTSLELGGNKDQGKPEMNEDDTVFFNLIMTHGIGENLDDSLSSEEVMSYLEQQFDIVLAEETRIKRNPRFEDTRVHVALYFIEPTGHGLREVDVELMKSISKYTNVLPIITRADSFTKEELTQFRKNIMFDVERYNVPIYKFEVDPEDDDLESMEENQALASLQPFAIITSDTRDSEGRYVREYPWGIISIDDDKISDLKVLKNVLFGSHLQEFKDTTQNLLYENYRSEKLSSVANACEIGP
Chain of Shs1(E344C ΔCTE)-capped, otherwise Cys-less septin hetero-octamer (S. cerevisiae) (P32468 whole entry C40A/C278S, chain 2 of 4, further chain): as the sequence (P32468 whole entry C40A/C278S, chain 2 of 4, further chain) above
Chain of Shs1(E344C ΔCTE)-capped, otherwise Cys-less septin hetero-octamer (S. cerevisiae) (P32457 other isoform, or with tags, fused parts or gaps E344C, chain 3 of 4, further chain): as the sequence (P32457 other isoform, or with tags, fused parts or gaps E294C, chain 3 of 4, further chain) above
Chain of Shs1(E344C ΔCTE)-capped, otherwise Cys-less septin hetero-octamer (S. cerevisiae) (P25342 whole entry C266S, chain 4 of 4, further chain): as the sequence (P25342 whole entry C266S, chain 4 of 4, further chain) above

[4] = biological target: Cdc11(E294C ΔCTE)-capped, otherwise Cys-less septin hetero-octamer (S. cerevisiae) (UniProt P32458)

Kd [1]: 24.1 nM
Kd [2]: 22.2 nM
Kd [3]: 22.8 nM
Kd [4]: 17.7 nM
Substance: Cdc11(E294C ΔCTE)-capped, otherwise Cys-less septin hetero-octamer (from UniProt P32458 1-305; P32468 1-407; P32457 1-520; P25342 1-322) (complex)
